In PMC6019700 (Cell Reports, 2018):

How the values were obtained:
[1] = molecular target: PC64M18C043 full-length Env (late FL), clade A HIV-1 Env clone no. 43 from the 18 months post-infection … (HIV-1 clade A, donor PC64, clone …, strain, N-linked glycans (N130, N156, N160 and others) | N-linked glycans (N611, N616, N637 and others)); experiment: cell-based or functional assay
[2] = molecular target: PC64M4C054 full-length Env (early FL) (HIV-1 clade A, donor PC64, clone …, strain, N-linked glycans | N-linked glycans); experiment: cell-based or functional assay

B1: PCT64-35S Fab (late Fab), PCT64 lineage antibody isolated from the month 35 sample (Fab, V domains shown)
VH: EVQLVESGGGLVKPGGSLRLACVGSEFTFSEAWMTWVRQAPGKGLEWVGHMRPTTEGGAKDYAAAVRGRFTIARDDSKSTLYLQMNSLKIEDTGVYYCMTGVERGDFWSDDYSQHYNTYLIDVWGKGTTVTVSS
VL: EIVLTQSPGTLSLSPGDRATLSCRATQSVGGDYFAWYQQRPGQSPRLLIYGTSRRAAGIPDRFSGSGSGTDFTLTIDRLEPEDFAVYYCRQYETSFTFGPGTKVDIK
For B1, the “neutralisation of late M18 virus by the antibody PCT64-35S, IC50” value [1] was 9 µg/mL.

B2: PGT151 Fab (Fab, V domains shown)
VH: RVQLVESGGGVVQPGKSVRLSCVVSDFPFSKYPMYWVRQAPGKGLEWVAAISGDAWHVVYSNSVQGRFLVSRDNVKNTLYLEMNSLKIEDTAVYRCARMFQESGPPRLDRWSGRNYYYYSGMDVWGQGTTVTVSS
VL: DIVMTQTPLSLSVTPGQPASISCKSSESLRQSNGKTSLYWYRQKPGQSPQLLVFEVSNRFSGVSDRFVGSGSGTDFTLRISRVEAEDVGFYYCMQSKDFPLTFGGGTKVDLK
For B2, the “neutralisation of late Env pseudovirus, IC50” value [1] was 1.3 ng/mL.

B3: PCT64-13C Fab (early Fab), PCT64 lineage antibody isolated from month 13 (Fab, V domains shown)
VH: EVQLVESGGGLVKPGGSLRLSCAASGFTFTNAWLDWVRQAPGKGLEWVGRIKSKTDGGTTDHAAPVKGRFTISRDDSKNTVYLQMNSLKIEDTAVYYCTTGVETYDFWSGYDDHYYDYYFKDVWGKGTTVTVSS
VL: EIVLTQSPGTLSLSPGERATLSCRASQSVSNNYLAWYQQKPGQAPRLLIYGASSRATGIPDRFSGSGSGTDFTLTISRLEPEDFAVYYCQQSARSFTFGPGTKVDIK
With B3 the “neutralisation of early M4 virus by the antibody PCT64-13C, IC50” value [2] was 0.0229 µg/mL.
